Experimental data from patent US20240132578A1.

How the values were obtained:
Assay in all cases: cell-based or functional assay
[1] = target: HIV-1 Env of pseudovirus CAP45 (HIV-1)
[2] = target: HIV-1 Env of pseudovirus TR0.11 (HIV-1)
[3] = target: HIV-1 92RW020 envelope glycoprotein (Env), on pseudovirus (HIV-1 isolate 92RW020 (clade A))
[4] = target: HIV-1 Env of pseudovirus PVO.4 (HIV-1)
[5] = target: HIV-1 Env of pseudovirus ZM214 (HIV-1)
[6] = target: HIV-1 Env of pseudovirus AC10 (HIV-1)
[7] = target: HIV-1 Env of pseudovirus ZM249 (HIV-1)
[8] = target: HIV-1 JR-FL Env E168K, on pseudovirus (HIV-1 isolate JR-FL (clade B))
[9] = target: HIV-1 Env of pseudovirus REJ04541 (HIV-1)
[10] = target: HIV-1 Env of pseudovirus CAAN (HIV-1)
[11] = target: HIV-1 ADA envelope glycoprotein (Env), on pseudovirus (HIV-1 isolate ADA)
[12] = target: HIV-1 Env of pseudovirus DU422 (HIV-1)
[13] = target: HIV-1 Env of pseudovirus Du172 (HIV-1)
[14] = target: HIV-1 Env of pseudovirus ZM233 (HIV-1)
[15] = target: HIV-1 Env of pseudovirus THRO.18 (HIV-1)
[16] = target: Envelope protein of control pseudovirus MuLV (MuLV)
[17] = target: HIV-1 Env of pseudovirus DU156 (HIV-1)

Row | Binder | IC50, pseudovirus neutralization (TZM-bl assay) [1] [µg/mL] | IC50, pseudovirus neutralization (TZM-bl assay) [2] [µg/mL] | IC50 (ug/ml), pseudovirus neutralization, TZM-bl assay [3] [µg/mL] | IC50, pseudovirus neutralization (TZM-bl assay) [4] [µg/mL] | IC50, pseudovirus neutralization (TZM-bl assay) [5] [µg/mL] | IC50, pseudovirus neutralization (TZM-bl assay) [6] [µg/mL] | IC50, pseudovirus neutralization (TZM-bl assay) [7] [µg/mL] | IC50 (ug/ml), pseudovirus neutralization, TZM-bl assay [8] [µg/mL] | IC50, pseudovirus neutralization (TZM-bl assay) [9] [µg/mL] | IC50, pseudovirus neutralization (TZM-bl assay) [10] [µg/mL] | IC50 (ug/ml), pseudovirus neutralization, TZM-bl assay [11] [µg/mL] | IC50, pseudovirus neutralization (TZM-bl assay) [12] [µg/mL] | IC50, pseudovirus neutralization (TZM-bl assay) [13] [µg/mL] | IC50, pseudovirus neutralization (TZM-bl assay) [14] [µg/mL] | IC50, pseudovirus neutralization (TZM-bl assay) [15] [µg/mL] | IC50, pseudovirus neutralization (TZM-bl assay), control virus [16] [µg/mL] | IC50, pseudovirus neutralization (TZM-bl assay) [17] [µg/mL]
1 | 1503_H05 (PG16) (TCN-119) (antibody, V domains shown) VH: QEKLVESGGGVVQPGGSLRLSCLASGFTFHKYGMHWVRQAPGKGLEWVALISDDGMRKYHSDSMWGRVTISRDNSKNTLYLQFSSLKVEDTAMFFCAREAGGPIWHDDVKYYDFNDGYYNYHYMDVWGKGTIVTVSS VL: QSALTQPASVSGSPGQTITISCNGTRSDVGGFDSVSWYQQSPGKAPKVMVFDVSHRPSGISNRFSGSKSGNTASLTISGLHIEDEGDYFCSSLTDRSHRIFGGGTKVTVLG | < 0.01 | 4.3 | 0.02 | 11 | > 25 | < 0.01 | < 0.01 | 0.002 | 0.22 | 13.5 | 0.003 | 0.71 | < 0.01 | < 0.01 | 4.12 | > 25 | < 0.01
2 | 1489_I13 (PG16) (TCN-120) (antibody, V domains shown) VH: QEQLLESGGGVVQPGGSLRLSCLASGFTFHKYGMHWVRQAPGKGLEWVALISDDGMRKYHSNSMWGRVTISRDNSKNTLYLQFSSLKVEDTAMFFCAREAGGPIWHDDVKYYDFNDGYYNYHYMDVWGKGTTVTVSS VL: QSALTQPASVSGSPGQTITISCNGTSSDVGGFDSVSWYQQSPGKAPKVMVFDVSHRPSGISNRFSGSKSGNTASLTISGLHIEDEGDYFCSSLTDRSHRIFGGGTKVTVLG | < 0.01 | 10.9 | 0.03 | 20.6 | > 25 | < 0.01 | < 0.01 | 0.005 | 0.34 | 24.9 | 0.008 | 1.87 | < 0.01 | < 0.01 | 7.41 | > 25 | < 0.01
